B1: hu1D7v63 VHH-hIgG1 Fc-NNT (monomeric) (VHH)
VHH: EVQLLESGGGEVQPGGSLRLSCAASRGKISQYRMGWYRQAPGKERELVAHISNTGDAAEYVAPVKDRFTISRDNAKNALYLQMSSLRAEDTAVYKCNTVEDILAWGQGTLVTVRP
B2: hu1D7v11 VHH-hIgG1 Fc-NNT (monomeric) (VHH)
VHH: EVQLLESGGGEVQPGGSLRLSCVASRGKISQYRMGWYRQAPGKGLEWVAAISNTGDAAEYVDSVKGRFTISRDSTKNAVYLQMSSLRAEDTAVYKCNSVEDILAWGQGTLVTVKP
B3: hu1D7v13 VHH-hIgG1 Fc-NNT (monomeric) (VHH)
VHH: EVQLLESGGGEVQPGGSLRLSCVASRGKISQYRMGWYRQAPGKGLEWVAHISNSGDAAEYVDSVKGRFTISRDSTKNAVYLQMSSLRAEDTAVYKCNSVEDILAWGQGTLVTVKP
B4: hu1D7v25 VHH-hIgG1 Fc-NNT (monomeric) (VHH)
VHH: EVQLLESGGGEVQPGGSLRLSCVASRGKISQYRMGWYRQAPGKGLEWVAHISNTGDAAEYVDSVKGRFTISRDSTKNAVYLQMSSLRAEDTAVYKCASVEDILAWGQGTLVTVKP
B5: hu1D7v19 VHH-hIgG1 Fc-NNT (monomeric) (VHH)
VHH: EVQLLESGGGEVQPGGSLRLSCVASRGKISQYRMGWYRQAPGKGLEWVAHISNTGDAAEYVDSVKDRFTISRDSTKNAVYLQMSSLRAEDTAVYKCNSVEDILAWGQGTLVTVKP
B6: hu1D7v32 VHH-hIgG1 Fc-NNT (monomeric) (VHH)
VHH: EVQLLESGGGEVQPGGSLRLSCVASRGKISQYRMGWYRQAPGKELEWVAHISNTGDAAEYVESVKGRFTISRDSTKNAVYLQMSSLRAEDTAVYKCNSVEDILAWGQGTLVTVKP
B7: hu1D7v15 VHH-hIgG1 Fc-NNT (monomeric) (VHH)
VHH: EVQLLESGGGEVQPGGSLRLSCVASRGKISQYRMGWYRQAPGKGLEWVAHISNTGDSAEYVDSVKGRFTISRDSTKNAVYLQMSSLRAEDTAVYKCNSVEDILAWGQGTLVTVKP
B8: hu1D7v24 VHH-hIgG1 Fc-NNT (monomeric) (VHH)
VHH: EVQLLESGGGEVQPGGSLRLSCVASRGKISQYRMGWYRQAPGKGLEWVAHISNTGDAAEYVDSVKGRFTISRDSTKNAVYLQMSSLRAEDTAVYKCNAVEDILAWGQGTLVTVKP
B9: hu1D7v58 VHH-hIgG1 Fc-NNT (monomeric) (VHH)
VHH: EVQLLESGGGEVQPGGSLRLSCVASRGKISQYRMGWYRQAPGKERELVAHISNTGDAAEYVDSVKDRFTISRDSTKNALYLQMSSLRAEDTAVYKCNSVEDILAWGQGTLVTVRP
B10: hu1D7v60 VHH-hIgG1 Fc-NNT (monomeric) (VHH)
VHH: EVQLLESGGGEVQPGGSLRLSCVASRGKISQYRMGWYRQAPGKERELVAHISNTGDAAEYVDSVKDRFTISRDNAKNALYLQMSSLRAEDTAVYKCNSVEDILAWGQGTLVTVRP
B11: hu1D7v31 VHH-hIgG1 Fc-NNT (monomeric) (VHH)
VHH: EVQLLESGGGEVQPGGSLRLSCVASRGKISQYRMGWYRQAPGKELEWVAHISNTGDAAEYVAPVKGRFTISRDSTKNAVYLQMSSLRAEDTAVYKCNSVEDILAWGQGTLVTVKP
B12: hu1D7v33 VHH-hIgG1 Fc-NNT (monomeric) (VHH)
VHH: EVQLLESGGGEVQPGGSLRLSCVASRGKISQYRMGWYRQAPGKELEWVAHISNTGDAAEYVDSVKDRFTISRDSTKNAVYLQMSSLRAEDTAVYKCNSVEDILAWGQGTLVTVKP
B13: hu1D7v30 VHH-hIgG1 Fc-NNT (monomeric) (VHH)
VHH: EVQLLESGGGEVQPGGSLRLSCVASRGKISQYRMGWYRQAPGKELEWVAHISNTGDAAYYVDSVKGRFTISRDSTKNAVYLQMSSLRAEDTAVYKCNSVEDILAWGQGTLVTVKP
B14: hu1D7v1 VHH-hIgG1 Fc-NNT (monomeric) (VHH)
VHH: EVQLLESGGGEVQPGGSLRLSCVASRGKISQYRMGWYRQAPGKGLEWVAHISNTGDAAEYVDSVKGRFTISRDSTKNAVYLQMSSLRAEDTAVYKCNSVEDILAWGQGTLVTVKP
B15: hu1D7v28 VHH-hIgG1 Fc-NNT (monomeric) (VHH)
VHH: EVQLLESGGGEVQPGGSLRLSCAASRGKISQYRMGWYRQAPGKELEWVAHISNTGDAAEYVDSVKGRFTISRDSTKNAVYLQMSSLRAEDTAVYKCNSVEDILAWGQGTLVTVKP
B16: hu1D7v61 VHH-hIgG1 Fc-NNT (monomeric) (VHH)
VHH: EVQLLESGGGEVQPGGSLRLSCVASRGKISQYRMGWYRQAPGKERELVAHISNTGDAAEYVDSVKDRFTISRDSTKNALYLQMSSLRAEDTAVYKCNTVEDILAWGQGTLVTVRP
B17: hu1D7v26 VHH-hIgG1 Fc-NNT (monomeric) (VHH)
VHH: EVQLLESGGGEVQPGGSLRLSCVASRGKISQYRMGWYRQAPGKGLEWVAHISNTGDAAEYVDSVKGRFTISRDSTKNAVYLQMSSLRAEDTAVYYCNSVEDILAWGQGTLVTVKP
B18: hu1D7v29 VHH-hIgG1 Fc-NNT (monomeric) (VHH)
VHH: EVQLLESGGGEVQPGGSLRLSCVASRGKISSYRMGWYRQAPGKELEWVAHISNTGDAAEYVDSVKGRFTISRDSTKNAVYLQMSSLRAEDTAVYKCNSVEDILAWGQGTLVTVKP
B19: hu1D7v17 VHH-hIgG1 Fc-NNT (monomeric) (VHH)
VHH: EVQLLESGGGEVQPGGSLRLSCVASRGKISQYRMGWYRQAPGKGLEWVAHISNTGDAAYYVDSVKGRFTISRDSTKNAVYLQMSSLRAEDTAVYKCNSVEDILAWGQGTLVTVKP
B20: hu1D7v34 VHH-hIgG1 Fc-NNT (monomeric) (VHH)
VHH: EVQLLESGGGEVQPGGSLRLSCVASRGKISQYRMGWYRQAPGKELEWVAHISNTGDAAEYVDSVKGRFTISRDNAKNAVYLQMSSLRAEDTAVYKCNSVEDILAWGQGTLVTVKP
B21: hu1D7v59 VHH-hIgG1 Fc-NNT (monomeric) (VHH)
VHH: EVQLLESGGGEVQPGGSLRLSCVASRGKISQYRMGWYRQAPGKERELVAHISNTGDAAEYVAPVKDRFTISRDSTKNALYLQMSSLRAEDTAVYKCNSVEDILAWGQGTLVTVRP
B22: hu1D7v36 VHH-hIgG1 Fc-NNT (monomeric) (VHH)
VHH: EVQLLESGGGEVQPGGSLRLSCVASRGKISQYRMGWYRQAPGKELEWVAHISNTGDAAEYVDSVKGRFTISRDSTKNAVYLQMSSLRAEDTAVYYCNSVEDILAWGQGTLVTVKP
B23: hu1D7v35 VHH-hIgG1 Fc-NNT (monomeric) (VHH)
VHH: EVQLLESGGGEVQPGGSLRLSCVASRGKISQYRMGWYRQAPGKELEWVAHISNTGDAAEYVDSVKGRFTISRDSTKNALYLQMSSLRAEDTAVYKCNSVEDILAWGQGTLVTVKP
B24: hu1D7v23 VHH-hIgG1 Fc-NNT (monomeric) (VHH)
VHH: EVQLLESGGGEVQPGGSLRLSCVASRGKISQYRMGWYRQAPGKGLEWVAHISNTGDAAEYVDSVKGRFTISRDSTKNALYLQMSSLRAEDTAVYKCNSVEDILAWGQGTLVTVKP
B25: hu1D7v18 VHH-hIgG1 Fc-NNT (monomeric) (VHH)
VHH: EVQLLESGGGEVQPGGSLRLSCVASRGKISQYRMGWYRQAPGKGLEWVAHISNTGDAAEYAESVKGRFTISRDSTKNAVYLQMSSLRAEDTAVYKCNSVEDILAWGQGTLVTVKP
B26: hu1D7v22 VHH-hIgG1 Fc-NNT (monomeric) (VHH)
VHH: EVQLLESGGGEVQPGGSLRLSCVASRGKISQYRMGWYRQAPGKGLEWVAHISNTGDAAEYVDSVKGRFTISRDSTKNTVYLQMSSLRAEDTAVYKCNSVEDILAWGQGTLVTVKP
B27: hu1D7v39 VHH-hIgG1 Fc-NNT (monomeric) (VHH)
VHH: EVQLLESGGGEVQPGGSLRLSCVASRGKISQYRMGWYRQAPGKELEWVAHISNTGDAAEYVDSVKGRFTISRDSTKNAVYLQMSSLRAEDTAVYKCNSVEDILAWGQGTLVTVRP
B28: hu1D7v57 VHH-hIgG1 Fc-NNT (monomeric) (VHH)
VHH: EVQLLESGGGEVQPGGSLRLSCVASRGKISQYRMGWYRQAPGKERELVAHISNTGDAAEYVDSVKGRFTISRDSTKNALYLQMSSLRAEDTAVYKCNSVEDILAWGQGTLVTVRP
B29: hu1D7v38 VHH-hIgG1 Fc-NNT (monomeric) (VHH)
VHH: EVQLLESGGGEVQPGGSLRLSCVASRGKISQYRMGWYRQAPGKELEWVAHISNTGDAAEYVDSVKGRFTISRDSTKNAVYLQMSSLRAEDTAVYKCNVVEDILAWGQGTLVTVKP
B30: hu1D7v37 VHH-hIgG1 Fc-NNT (monomeric) (VHH)
VHH: EVQLLESGGGEVQPGGSLRLSCVASRGKISQYRMGWYRQAPGKELEWVAHISNTGDAAEYVDSVKGRFTISRDSTKNAVYLQMSSLRAEDTAVYKCNTVEDILAWGQGTLVTVKP
B31: hu1D7v16 VHH-hIgG1 Fc-NNT (monomeric) (VHH)
VHH: EVQLLESGGGEVQPGGSLRLSCVASRGKISQYRMGWYRQAPGKGLEWVAHISNTGDATEYVDSVKGRFTISRDSTKNAVYLQMSSLRAEDTAVYKCNSVEDILAWGQGTLVTVKP
B32: hu1D7v14 VHH-hIgG1 Fc-NNT (monomeric) (VHH)
VHH: EVQLLESGGGEVQPGGSLRLSCVASRGKISQYRMGWYRQAPGKGLEWVAHISNTGGAAEYVDSVKGRFTISRDSTKNAVYLQMSSLRAEDTAVYKCNSVEDILAWGQGTLVTVKP
B33: hu1D7v4 VHH-hIgG1 Fc-NNT (monomeric) (VHH)
VHH: EVQLLESGGGEVQPGGSLRLSCVASRFKISQYRMGWYRQAPGKGLEWVAHISNTGDAAEYVDSVKGRFTISRDSTKNAVYLQMSSLRAEDTAVYKCNSVEDILAWGQGTLVTVKP
B34: 1D7 VHH-hIgG1 Fc-NNT (monomeric, parental) (VHH)
VHH: QVQLVQSGGGLVQPGGSLRLSCVASRGKISQYRMGWYRQAPGKQRELVAHISNTGDAAEYVDSVKGRFTISRDSTKNAVYLQMNSLKPEDTAVYKCNSVEDILAWGQGTQVTVKP

For the assay, the target named is human γδ TCR (Vγ9Vδ2) on human Vδ2+ γδ T cells (human) (UniProt A0JD36). Put plainly: flow cytometry on expanded human Vδ2+ γδ T cells, nonlinear fit. In general terms: Flow cytometry measures light scatter and fluorescence of single cells or particles in a stream.
One may read the Kd as a measure of binding affinity in units of concentration. As to B1, the Kd is 14.7 nM.

The molecule B2 yielded a dissociation constant Kd of 42.2 nM.

The molecule B3 returned a dissociation constant Kd of 18.2 nM.

For B4, the dissociation constant Kd was 866000 nM. This Kd is about 48000-fold higher than that of the molecule before.

Take B5: the dissociation constant Kd amounted to 26.7 nM.

B6 showed a Kd of 35.7 nM.

Molecule B7 yielded a Kd of 16.4 nM.

Molecule B8 registered a Kd of 9440 nM. Compared with the last molecule, the Kd is about 580-fold higher.

On to B9, for which the equilibrium dissociation constant (Kd) was 8.07 nM. Compared with the last molecule, the Kd is about 1200-fold lower.

For the molecule B10, the equilibrium dissociation constant (Kd) came out at 9.67 nM. The Kd values of the last two molecules are within 1.5-fold of each other.

Turning to B11, the Kd came to 16.7 nM.

Molecule B12 came in with a dissociation constant Kd of 13 nM.

B13 had a Kd of 38.4 nM.

The molecule B14 returned a Kd of 5.23 nM.

Molecule B15 came in with a Kd of 15.7 nM.

On to B16, for which the Kd stood at 41.3 nM.

B17 had a dissociation constant (Kd) of 29 nM.

Molecule B18 returned a Kd of 7230 nM.

For B19, the Kd is 20.1 nM.

The molecule B20 registered a Kd of 11.7 nM.

On to B21, for which the dissociation constant (Kd) came out at 23.8 nM.

Molecule B22 returned a dissociation constant Kd of 1500 nM.

For the molecule B23, the Kd was 8.4 nM.

Consider B24, for which the Kd is 18.1 nM. Against the preceding molecule, the Kd is about 2.2-fold higher.

Molecule B25 had a Kd of 42.5 nM.

Molecule B26 came in with a Kd of 29.1 nM.

B27: the dissociation constant (Kd) is 7.99 nM.

The molecule B28 showed an equilibrium dissociation constant (Kd) of 10.5 nM. The Kd values of the last two molecules are within 1.5-fold of each other.

Consider B29, for which the Kd was 20200 nM.

For the molecule B30, the Kd was determined as 17.4 nM.

Molecule B31 registered an equilibrium dissociation constant (Kd) of 24.6 nM.

As for B32, the dissociation constant (Kd) was 21.5 nM. The Kd values of the last two molecules are within 1.5-fold of each other.

Molecule B33 yielded a Kd of 8860 nM.

Take B34: the Kd amounted to 6.09 nM.

The values are drawn from patent US20250109203A1.
